Measured values from article doi:10.1101/2023.08.17.553727.

Biological target: B’β-GFP (Arabidopsis thaliana) (UniProt O04376)
Test: co-IP

UniProt O04376, sequence (O04376 whole entry): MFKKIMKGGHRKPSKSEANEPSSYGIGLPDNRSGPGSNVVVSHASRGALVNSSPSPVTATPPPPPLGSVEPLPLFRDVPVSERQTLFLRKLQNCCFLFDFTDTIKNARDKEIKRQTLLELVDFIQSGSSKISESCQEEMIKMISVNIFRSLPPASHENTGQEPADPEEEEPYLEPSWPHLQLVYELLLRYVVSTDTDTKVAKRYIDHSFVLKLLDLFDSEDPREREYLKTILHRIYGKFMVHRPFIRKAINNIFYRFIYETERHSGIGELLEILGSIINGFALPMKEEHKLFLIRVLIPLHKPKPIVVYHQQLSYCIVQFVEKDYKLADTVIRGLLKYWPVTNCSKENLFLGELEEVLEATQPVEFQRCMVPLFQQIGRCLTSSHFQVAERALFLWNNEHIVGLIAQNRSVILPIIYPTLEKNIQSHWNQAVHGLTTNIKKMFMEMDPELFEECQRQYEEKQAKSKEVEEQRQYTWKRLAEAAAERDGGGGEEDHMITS

binding ability to the C subunit relative to YFP-B’β (fold of YFP-B’β): 0.33
Substance: PP2A C subunit (from UniProt Q07099 1-306) (enzyme)
